According to the supplement of paper PMC7877785:
± gives the uncertainty stated by the source.

Assay: self-splicing fitness, log relative to wild type (ln ratio); higher = more splicing; Tetrahymena group I intron in knt gene, E. coli kanamycin selection, DiMSum; sequences stand for … in CUCUCU…GGAGGGAAAAGUUAUCAGGCAUGCACCUGGUAGCUAGUCUUUAAACCAAUAGAUUGCAUCGGUUUAAAAGGCAAGACCGUCAAAUUGCGGGAAAGGGGUCAACAGCCGUUCAGUACCAAGUCUCAGGGGAAACUUUGAGAUGGCCUUGCAAAGGGUAUGGUAAUAAGCUGACGGACAUGGUCCUAACCACGCAGCCAAGUCCUAAGUCAACAGAUCUUCUGUUGAUAUGGAUGCAGUUCACAGACUAAAUGUCGGUCGGGGAAGAUGUAUUCUUCUCAUAAGAUAUAGUCGGACCUCUCCUUAAUGGGAGCUAGCGGAUGAAGUGAUGCAACACUGGAGCCGCUGGGAACUAAUUUGUAUGCGAAAGUAUAUUGAUUAGUUUUGGAGUACUCGUGGUCG
Procedure, shortened: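 DiMSum derived fitness as the error-weighted combination of fold changes across replicates, kanamycin versus no kanamycin, normalised to wild type. E. coli BL21(DE3) held the library, which randomised all eight P1ex-region intron nucleotides within the knt kanamycin-resistance gene on pET-22b(+). Six replicate transformations grew overnight at 37°C or 30°C on LB agar with or without 25 μg/mL kanamycin, also containing 100 μg/mL carbenicillin, 50 μM IPTG and 0.2% rhamnose, and pooled colonies were amplicon-sequenced on an Illumina HiSeq 2500.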

## UCGUAGCAAUAUUACGAGUA
30 °C
  self-splicing fitness (ln): -2.71 ± 0.18
37 °C
  self-splicing fitness (ln): -1.21 ± 0.13

## UCGUAGCAAUAUUACGAUCA
30 °C
  self-splicing fitness (ln): -0.922 ± 0.19
37 °C
  self-splicing fitness (ln): -0.511 ± 0.17

## UCGUAGCAAUAUUACGAUUG
30 °C
  self-splicing fitness (ln): -2.6 ± 0.15
37 °C
  self-splicing fitness (ln): -2.92 ± 0.28

## UCGUAGCAAUAUUACGCAGU
30 °C
  self-splicing fitness (ln): -3.54 ± 0.39
37 °C
  self-splicing fitness (ln): -2.51 ± 0.28

## UCGUAGCAAUAUUACGCCCU
30 °C
  self-splicing fitness (ln): -1 ± 0.25
37 °C
  self-splicing fitness (ln): -0.827 ± 0.34

## UCGUAGCAAUAUUACGGACU
30 °C
  self-splicing fitness (ln): -3.21 ± 0.31
37 °C
  self-splicing fitness (ln): -0.974 ± 0.21

## UCGUAGCAAUAUUACGGCUU
30 °C
  self-splicing fitness (ln): -2.85 ± 0.46
37 °C
  self-splicing fitness (ln): -1.64 ± 0.33

## UCGUAGCAAUAUUACGGUAG
30 °C
  self-splicing fitness (ln): -4.09 ± 0.36
37 °C
  self-splicing fitness (ln): -3.06 ± 0.4

## UCGUAGCAAUAUUACGGUGU
30 °C
  self-splicing fitness (ln): -3.09 ± 0.13
37 °C
  self-splicing fitness (ln): -2.7 ± 0.19

## UCGUAGCAAUAUUACGUAAU
30 °C
  self-splicing fitness (ln): -2.47 ± 0.14
37 °C
  self-splicing fitness (ln): -1.78 ± 0.17

## UCGUAGCAAUAUUACGUGCU
30 °C
  self-splicing fitness (ln): -2.98 ± 0.26
37 °C
  self-splicing fitness (ln): -2.83 ± 0.48

## UCGUAGCAAUAUUACGUGGA
30 °C
  self-splicing fitness (ln): -2.39 ± 0.16
37 °C
  self-splicing fitness (ln): -2.36 ± 0.13

## UCGUAGCAAUAUUACGUUUA
30 °C
  self-splicing fitness (ln): -1.5 ± 0.085
37 °C
  self-splicing fitness (ln): -0.934 ± 0.08

## UCGUAGCAAUAUUACGUUUC
30 °C
  self-splicing fitness (ln): -3.71 ± 0.24
37 °C
  self-splicing fitness (ln): -2.31 ± 0.21

## UCUAAGCAAUAUUACGAACA
30 °C
  self-splicing fitness (ln): -1.21 ± 0.28
37 °C
  self-splicing fitness (ln): -1.2 ± 0.2

## UCUAAGCAAUAUUACGAAUA
37 °C
  self-splicing fitness (ln): -1.52 ± 0.32

## UCUAAGCAAUAUUACGACAG
30 °C
  self-splicing fitness (ln): -1.58 ± 0.1
37 °C
  self-splicing fitness (ln): -0.799 ± 0.15

## UCUAAGCAAUAUUACGACUC
30 °C
  self-splicing fitness (ln): -3.61 ± 0.48
37 °C
  self-splicing fitness (ln): -2.43 ± 0.42

## UCUAAGCAAUAUUACGACUU
30 °C
  self-splicing fitness (ln): -3.9 ± 0.28
37 °C
  self-splicing fitness (ln): -3.44 ± 0.37

## UCUAAGCAAUAUUACGAGAA
30 °C
  self-splicing fitness (ln): -3.17 ± 0.5
37 °C
  self-splicing fitness (ln): -1.69 ± 0.39

## UCUAAGCAAUAUUACGAGCC
30 °C
  self-splicing fitness (ln): -2.34 ± 0.34

## UCUAAGCAAUAUUACGAGCG
30 °C
  self-splicing fitness (ln): -1.19 ± 0.1
37 °C
  self-splicing fitness (ln): -0.708 ± 0.12

## UCUAAGCAAUAUUACGAUCG
30 °C
  self-splicing fitness (ln): -1.06 ± 0.099
37 °C
  self-splicing fitness (ln): -0.234 ± 0.1

## UCUAAGCAAUAUUACGCAAC
30 °C
  self-splicing fitness (ln): -3.54 ± 0.17
37 °C
  self-splicing fitness (ln): -1.32 ± 0.2

## UCUAAGCAAUAUUACGCAAU
37 °C
  self-splicing fitness (ln): -3.12 ± 0.43

## UCUAAGCAAUAUUACGCAGA
37 °C
  self-splicing fitness (ln): -0.999 ± 0.21

## UCUAAGCAAUAUUACGGACA
30 °C
  self-splicing fitness (ln): -2.39 ± 0.18
37 °C
  self-splicing fitness (ln): -1.18 ± 0.17

## UCUAAGCAAUAUUACGGACU
30 °C
  self-splicing fitness (ln): -3.51 ± 0.28
37 °C
  self-splicing fitness (ln): -2.84 ± 0.27

## UCUAAGCAAUAUUACGGCAG
30 °C
  self-splicing fitness (ln): -1.35 ± 0.13
37 °C
  self-splicing fitness (ln): -0.508 ± 0.14

## UCUAAGCAAUAUUACGGCCG
30 °C
  self-splicing fitness (ln): -1.36 ± 0.34
37 °C
  self-splicing fitness (ln): 0.444 ± 0.3

## UCUAAGCAAUAUUACGGCUC
37 °C
  self-splicing fitness (ln): -1.67 ± 0.35

## UCUAAGCAAUAUUACGGGUA
30 °C
  self-splicing fitness (ln): -1.64 ± 0.11
37 °C
  self-splicing fitness (ln): -0.58 ± 0.1

## UCUAAGCAAUAUUACGUAAU
30 °C
  self-splicing fitness (ln): -3.41 ± 0.2
37 °C
  self-splicing fitness (ln): -1.66 ± 0.19

## UCUAAGCAAUAUUACGUAGU
30 °C
  self-splicing fitness (ln): -0.857 ± 0.05
37 °C
  self-splicing fitness (ln): -0.481 ± 0.069

## UCUAAGCAAUAUUACGUCGU
30 °C
  self-splicing fitness (ln): -1.19 ± 0.1
37 °C
  self-splicing fitness (ln): -0.695 ± 0.12

## UCUAAGCAAUAUUACGUGCA
30 °C
  self-splicing fitness (ln): -1.2 ± 0.12
37 °C
  self-splicing fitness (ln): -0.538 ± 0.13

## UCUAAGCAAUAUUACGUUGG
30 °C
  self-splicing fitness (ln): -1.6 ± 0.064
37 °C
  self-splicing fitness (ln): -1.37 ± 0.086

## UCUCAGCAAUAUUACGACCA
30 °C
  self-splicing fitness (ln): -0.757 ± 0.13
37 °C
  self-splicing fitness (ln): -0.615 ± 0.14

## UCUCAGCAAUAUUACGACGC
37 °C
  self-splicing fitness (ln): 0.221 ± 0.23

## UCUCAGCAAUAUUACGACUC
30 °C
  self-splicing fitness (ln): -3.38 ± 0.38
37 °C
  self-splicing fitness (ln): -2.02 ± 0.33

## UCUCAGCAAUAUUACGAGCU
30 °C
  self-splicing fitness (ln): -1.48 ± 0.086
37 °C
  self-splicing fitness (ln): -0.552 ± 0.12

## UCUCAGCAAUAUUACGAUAC
30 °C
  self-splicing fitness (ln): -1.92 ± 0.28
37 °C
  self-splicing fitness (ln): -2.46 ± 0.45

## UCUCAGCAAUAUUACGAUCG
30 °C
  self-splicing fitness (ln): -1.29 ± 0.12
37 °C
  self-splicing fitness (ln): -0.618 ± 0.15

## UCUCAGCAAUAUUACGCAAU
30 °C
  self-splicing fitness (ln): -2.45 ± 0.23
37 °C
  self-splicing fitness (ln): -1.89 ± 0.23

## UCUCAGCAAUAUUACGCAUA
30 °C
  self-splicing fitness (ln): -2.22 ± 0.13
37 °C
  self-splicing fitness (ln): -0.634 ± 0.12

## UCUCAGCAAUAUUACGCCUC
30 °C
  self-splicing fitness (ln): -3.12 ± 0.27
37 °C
  self-splicing fitness (ln): -2.27 ± 0.29

## UCUCAGCAAUAUUACGGACU
30 °C
  self-splicing fitness (ln): -1.23 ± 0.062
37 °C
  self-splicing fitness (ln): -0.345 ± 0.088

## UCUCAGCAAUAUUACGGCCG
37 °C
  self-splicing fitness (ln): -2.73 ± 0.38

## UCUCAGCAAUAUUACGUAAG
30 °C
  self-splicing fitness (ln): -2.07 ± 0.12
37 °C
  self-splicing fitness (ln): -1.17 ± 0.13
